# Literature values, collected in article PMC8535836.
# Target: Neuroplastin Np65 Ig1 (Rattus norvegicus) (UniProt P97546)
# Experiment: Surface Plasmon Resonance
substance,measurement,value
Neuroplastin Np65 Ig1 (from UniProt P97546),Kd,520 nM
